Key:
[1] = target: SARS-CoV-2 spike ectodomain, prefusion-stabilised trimer (刺突 S2P) (SARS-CoV-2); experiment: SPR, captured spike S2P
[2] = target: SARS-CoV-2 spike on live SARS-CoV-2 virus (isolate France/IDF0372/2020) (SARS-CoV-2) (UniProt P0DTC2); experiment: cell-based or functional assay
[3] = target: SARS-CoV-2 spike ectodomain, prefusion-stabilised trimer (刺突 S2P) (SARS-CoV-2); experiment: SPR, captured spike S2P, biphasic dissociation, slow phase kd2
[4] = target: SARS-CoV-2 spike ectodomain, prefusion-stabilised trimer (刺突 S2P) (SARS-CoV-2); experiment: SPR, captured spike S2P, biphasic dissociation, fast phase kd1
[5] = target: SARS-CoV-2 spike ectodomain, prefusion-stabilised trimer (刺突 S2P) (SARS-CoV-2); experiment: SPR, captured spike S2P, no measurable dissociation in ten minutes
[6] = target: SARS-CoV-2 spike ectodomain, prefusion-stabilised trimer (刺突 S2P) (SARS-CoV-2)

## Nb6-tri (trivalent Nb6 with two 20 amino acid linkers) (VHH)
[1]
  fold gain in KD against monovalent Nb6: > 200000 fold
[2]
  mean IC50, plaque reduction neutralisation of live SARS-CoV-2 on VeroE6 cells: 0.16 nM
[3]
  koff: < 1e-06 s⁻¹
[4]
  koff: 0.029 s⁻¹

## mNb6-tri (trivalent mNb6 with 20 amino acid linkers) (VHH)
[1]
  Kd: < 0.001 nM
  dissociation half-life t1/2: > 8 天 (days)
[5]
  koff: < 1e-06 s⁻¹

## mNb6 (affinity-matured Nb6, I27Y and P105Y) (VHH)
[6]
  EC50: 0.056 nM
